Measured values: PMC9492775

Target: C3 degradation products deposited on the bacterial surface (human) (UniProt P01024)
Assay: flow cytometry on cells; S. aureus JE2Δsbi spa::Tn opsonised in 10% NHS, incubated with polyclonal anti-human C3d antibody or not, washed, then probed with biotin-labelled Sbi-IV and streptavidin-AF488; gMFI

UniProt P01024, sequence (P01024 23-1663): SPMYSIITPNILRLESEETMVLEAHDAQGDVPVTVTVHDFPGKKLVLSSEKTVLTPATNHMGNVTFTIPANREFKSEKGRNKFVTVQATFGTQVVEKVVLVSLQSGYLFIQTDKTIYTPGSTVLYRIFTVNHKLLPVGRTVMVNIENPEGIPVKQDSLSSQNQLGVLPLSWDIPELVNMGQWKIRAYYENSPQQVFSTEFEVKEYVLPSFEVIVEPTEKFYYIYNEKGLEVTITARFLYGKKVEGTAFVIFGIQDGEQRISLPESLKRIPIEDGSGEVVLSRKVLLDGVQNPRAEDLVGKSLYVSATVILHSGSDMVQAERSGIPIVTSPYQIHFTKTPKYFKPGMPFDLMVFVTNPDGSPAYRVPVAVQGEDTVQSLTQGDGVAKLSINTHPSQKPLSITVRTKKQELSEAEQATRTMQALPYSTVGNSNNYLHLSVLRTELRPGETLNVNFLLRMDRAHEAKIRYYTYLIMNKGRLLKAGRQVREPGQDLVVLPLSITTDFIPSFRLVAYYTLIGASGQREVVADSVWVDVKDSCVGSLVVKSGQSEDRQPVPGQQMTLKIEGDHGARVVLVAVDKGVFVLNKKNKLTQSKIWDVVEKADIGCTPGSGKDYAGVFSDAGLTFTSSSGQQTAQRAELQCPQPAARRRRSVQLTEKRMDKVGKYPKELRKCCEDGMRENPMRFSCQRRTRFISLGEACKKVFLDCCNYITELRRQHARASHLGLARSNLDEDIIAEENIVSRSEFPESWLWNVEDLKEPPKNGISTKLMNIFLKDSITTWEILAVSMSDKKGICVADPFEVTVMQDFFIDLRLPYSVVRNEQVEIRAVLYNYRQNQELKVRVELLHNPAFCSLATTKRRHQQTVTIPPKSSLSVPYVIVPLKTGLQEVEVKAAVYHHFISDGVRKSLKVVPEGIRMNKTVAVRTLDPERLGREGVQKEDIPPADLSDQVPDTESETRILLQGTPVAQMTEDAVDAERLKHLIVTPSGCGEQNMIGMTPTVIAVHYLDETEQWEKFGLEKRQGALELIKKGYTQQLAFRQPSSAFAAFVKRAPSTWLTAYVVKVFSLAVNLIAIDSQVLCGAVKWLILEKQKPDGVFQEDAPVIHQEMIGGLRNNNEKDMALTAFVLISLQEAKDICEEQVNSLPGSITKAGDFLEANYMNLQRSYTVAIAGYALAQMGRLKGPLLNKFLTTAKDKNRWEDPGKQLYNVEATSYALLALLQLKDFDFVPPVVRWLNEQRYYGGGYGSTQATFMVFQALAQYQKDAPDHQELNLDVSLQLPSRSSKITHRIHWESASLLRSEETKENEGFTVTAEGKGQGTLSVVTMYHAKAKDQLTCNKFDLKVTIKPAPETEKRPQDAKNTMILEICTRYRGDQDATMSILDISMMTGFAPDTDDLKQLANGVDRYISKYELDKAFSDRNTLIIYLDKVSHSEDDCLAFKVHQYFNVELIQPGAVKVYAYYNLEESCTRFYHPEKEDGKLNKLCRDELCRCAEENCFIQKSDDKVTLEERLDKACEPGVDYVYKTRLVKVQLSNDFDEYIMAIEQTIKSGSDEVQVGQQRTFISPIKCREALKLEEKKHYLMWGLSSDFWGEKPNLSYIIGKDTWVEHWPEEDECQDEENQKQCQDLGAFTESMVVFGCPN

Work on “biotin-labelled Sbi-IV (complement C3 binding domain IV of the staphylococcal Sbi protein) (from UniProt Q931F4 198-266) (domain or fragment)” yielded a percent reduction of binding after polyclonal anti-C3d antibodies of 50%.
